Measured values reported in the supplement of paper PMC9170038.

Test system: K4 kissing-loop RNA reporter
Assay: apparent KD of K4 kissing-loop reporter; higher = weaker reporter binding
Details: Eterna round: R107
Description: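 RNA-MaP round R107: designed RNA switches with theophylline, tryptophan, arginine or FMN aptamers are transcribed on-chip within common flanks. They are titrated with a labelled K4 kissing-loop RNA reporter in RNA-MaP buffer (100 mM Tris pH 7.5, 80 mM KCl, 4 mM MgCl2), without ligand or with the indicated ligand. Median apparent KD per design.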

[1] = input ligand: theophylline 20 uM
[2] = input ligand: tryptophan 2.4 mM
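Further: bound reporter read as fluorescence of individual clusters on recovered sequencing chips by microscopy, with normalized cluster intensities fitted with a binding model.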

Sequence | apparent KD of K4 kissing-loop reporter (input ligand: FMN 200 uM) [nM] | apparent KD of K4 kissing-loop reporter (input ligand: arginine 13.2 mM) [nM] | apparent KD of K4 kissing-loop reporter (input ligand: none) [nM] | apparent KD of K4 kissing-loop reporter [1] [nM] | apparent KD of K4 kissing-loop reporter [2] [nM]
UUCAGGUGUUCGGCCGCCACUCCAGUGAUGUUGGAGUGGCUUCACAAGGGCCAGGACAAUGUAGGGAGGACCGGGAAUAUCGCAG [Atvebeance] | 143 | 117 | 129 | 107 | 125
CACCUAGGUACGGCCGCCACUAGAAGUGAUGUUUCGUCUGGUUCCGCAUUACGUGUACUUUCUUAUAGGACCGGGUAGCAAAUAG [theeternabot_exclusion_KL_Trp_B_3] | 548 | 288 | 563 | 258 | 311
AAGUGAUGUUGUAGUGAUGUUGUGAUGUUGCAGGAUAUAUAGUGAUGUAGAAGGGUAAGUACUGAUUUUUUUUGUGAGUGAUGUU [bbgvzrmullin] | 87.9 | 41.6 | 75.9 | 54.1 | 71.4
AGACUACCACACUGUCAAUAGACAGUGAGCUAGGAUAUGCUGAUAAGCAGAAGGAGUGAUGUUCCUUGGUAGUCAAUAAAAUAAU [FmnAX 13 G29+U67] | 366 | 271 | 285 | 319 | 280
AAGGGCUAGGCGGCCGCCACUGGUCGUGUACACAUACGAGCCAGUGAUGUUGGUAUUGUGUGCGGCAGGACCGGGCCUAGCCGAA [Exclusion - Tryptophan B (Freestyle 25)] | 410 | 303 | 304 | 468 | 387
UUUCCAGAUAAGUGGGAACACUCCAUAACAGAGGAUAUCAGAGCGCUGAGAAGGCUGUUUUACAGUGAUGUUGUAAGUGUGGAGU [FMN A SS t2] | 153 | 249 | 283 | 304 | 253
GCCGUAGAUGGAAGGAGCGUGUCAAAGUGAUGUUUUGAUUAACUCCCUUAGGGAAAGAUGGCACAGGUAGGUCGCCAUCUACGGC | 104 | 74.2 | 102 | 131 | 90.4
AACAUUUUCAGAAGGAGCGUGAAUUAUUCAUAAUUAUAUUAUACGAGUGAUGUUCGUAUUUCACAGGUAGGUCGCUGAUAUAUUA [JR_SSArginiB_Sub001] | 113 | 133 | 114 | 133 | 107
UGUGGAGGAUAUGAUACCAGCAGUGAGAGAGAGGAAGUAUAGUGAUGUUAUAUGAGAGAAUGCCCUUGGCAGCGUGUGUAGUAGG [SSTheophylB.J] | 189 | 165 | 200 | 153 | 210
GCAGUGAUGUUGCACGAGUAGGGUAGAGUGCGAGGACCGGUACGGCCGCCACUCGUAUGGAACUCGCUAAUUUAUGGAAUGGUGA [whbob_SS_tryp_A] | 791 | 828 | 1020 | 920 | 575
UAGGAGUGAUGUUCCAUAUCUUGAGCCGAAGGAGCGGCAUUAUAGCCAGGUAGGUCGCGGCAGAAGGUACCAGUGAUGUUGGAAA [Same State Arginine A GF5] | 182 | 160 | 206 | 202 | 173
AAUUCCUGUUAUGAUACCAGAAAUCACAGCAACCUGCCUACCUAGUGAUGUUAGGAGAAUUUCCCUUGGCAGCAUCGACUGAAGG [theeternabot_sameState_KL_Theo_B_38] | 147 | 173 | 145 | 151 | 124
AAUGAUCGUAUGGCGAGGUACUCGUGUUCGAAGGAUAUUAAUAGAAUAAGAAGGUCGAAAUCGUGUCUGGAAGUGAUGUUUCCAU [theeternabot_sameState_KL_FMN_A_32] | 111 | 106 | 106 | 123 | 89.6
UGAUACCAGACUGAUACCAGCGAGUGAUGUUCGUUGAAAUCAGGGUCAAAGACCCUGUCUCGCCCUUGGCAGCAGUCUGGUAUCU [TheoBX 22 #SwitchBubble #StaticStem] | 690 | 704 | 829 | 320 | 785
GUACGCUCCCGAGUGAUGUUCGGUAAUCGCGAGGAUAUCGCUUUUGCGAGAAGGCGCGGAAUGAGGAAACUCGUUCUGAGUGUAC [FMN A 25] | 234 | 191 | 253 | 212 | 233
CUUGGGCUUGCGGCCGCCACUCAAACAUCAUUAAGGAUGGUCCACGGGCAAGUGAUGUUUAUCCGGAGGACCGGGCAUAGCGACA [theeternabot_exclusion_KL_Trp_B_23] | 337 | 270 | 315 | 315 | 342
GAGGUACAGCUGGCCGUCGAAUUGUCCGAUACCAGACACUCUCUAGUCCCUUGGCAGCGGUGGUAAGUGAUGUUUACAGGCGCCG [theeternabot_exclusion_KL_Theo_A_3] | 152 | 104 | 147 | 122 | 126
AGCUAGUACGCAGGAUAUCGAACAUCAUUUAGUGAGAUCGAGUGAUGUUCGAUCACGUCUUCAGUUCGAGAAGGGCGUACUAGCA [#01 K4 FMN B Same State] | 349 | 423 | 1090 | 1220 | 777
CCGUCGACAAGCGCCAUCGUCUACGUCAAUAAGGAUAUCAUCAAGGUGAGAAGGUAUGACAACCGGAGUGAUGUUCCAGGGCGAA [theeternabot_sameState_KL_FMN_A_5] | 506 | 362 | 368 | 304 | 346
AAGAAUAAUCUUGCAGUGAUGUUGCAAGAUACCAGCAUCGAAAGAUGCCCUUGGCAGCUUGAAACUGCAAGAAUCAAGCUGAAUA [Design1] | 150 | 131 | 140 | 145 | 137
AAACAUCACUGGGAGUGAUGUUCUCAGUGACGAGGACCGGUACGGCCGCCACUCGCGAGAGAUAUAGAUAAGUAAUGACAUCAUU [Excl Tryptophan A V4] | 347 | 298 | 354 | 390 | 433
CUUGGAAAGACGGCCGCCACUGGCCAGUGAUGUUGGCCCACCAGGUAAGCCAAGAAGCUUGACGUCAGGACCGGGUCCUAGGAAU [Exclusion TRyptophan B GF 23] | 363 | 449 | 410 | 314 | 359
